Test results published in patent publication EP2481750A1 (Mayo Foundation for Medical Education and Research, dated 2012).

Target: T1, human B7-DC (human, UniProt Q9BQ51 20-273)
T1 construct: whole, on cells; also called hB7.DC; human B7-DC orthologue
T1 sequence (looked up): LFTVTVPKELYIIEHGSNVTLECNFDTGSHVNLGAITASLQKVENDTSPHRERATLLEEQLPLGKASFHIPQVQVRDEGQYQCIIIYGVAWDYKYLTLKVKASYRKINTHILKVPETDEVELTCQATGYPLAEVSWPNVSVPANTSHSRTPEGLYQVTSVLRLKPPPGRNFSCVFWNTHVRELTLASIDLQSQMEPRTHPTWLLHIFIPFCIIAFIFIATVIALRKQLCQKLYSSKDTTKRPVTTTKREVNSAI
Experiment: flow cytometry on Ltk cells transiently transfected with human B7-DC

binding result: binds
B1: sHIgM12 (pentameric human monoclonal IgM/kappa antibody, B7-DC cross-linking antibody) (antibody)
heavy: QVQLQESGPGLLKPSETLSLTCTVSGGSVSLYYWSWIRQSPGKEPEWIGYIYSSGSTDYNPSLRSRVTISLDTSNNRFSLNLRSVTAADTAVYWCARSASIRGWFDPWGQGTLVTVSSGSASAPTLFPLVSCENSPSDTSSVAVGCLAQDFLPDSITFSWKYKNNSDISSTRGFPSVLRGGKYAATSQVLLPSKDVMQGTDEHVVCKVQHPNGNKEKNVPLPVIAELPPKVSVFVPPRDGFFGNPRKSKLICQATGFSPRQIQVSWLREGKQVGSGVTTDQVQAEAKESGPTTYKVTSTLTIKESDWLSQSMFTCRVDHRGLTFQQNASSMCVPDQDTAIRVFAIPPSFASIFLTKSTKLTCLVTDLTTYDSVTISWTRQNGEAVKTHTNISESHPNATFSAVGEASICEDDWNSGERFTCTVTHTDLPSPLKQTISRPKGVALHRPDVYLLPPAREQLNLRESATITCLVTGFSPADVFVQWMQRGQPLSPEKYVTSAPMPEPQAPGRYFAHSILTVSEEEWNTGETYTCVVAHEALPNRVTERTVDKSTGKPTLYNVSLVMSDTAGTCY
light: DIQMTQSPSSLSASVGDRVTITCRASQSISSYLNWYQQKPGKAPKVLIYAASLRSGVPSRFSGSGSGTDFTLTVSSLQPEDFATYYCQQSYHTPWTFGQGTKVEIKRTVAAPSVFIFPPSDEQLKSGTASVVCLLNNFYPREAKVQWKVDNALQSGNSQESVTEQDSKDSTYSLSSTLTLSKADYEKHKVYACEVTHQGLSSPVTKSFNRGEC
notes: also called intact sHIgM12; pentameric sHIgM12
